Experimental data as given in patent publication US6379959B1, “Metalocarboxypeptidase inhibitors and derived molecules used as antitumor agents” (Universitat Autonoma de Barcelona, priority 1996, dated 2002).
Several values for one entry are separate records, joined by “and”; a condition that tells them apart may be missing. Equal entries are not always repeated. Positions of bridges follow the written chain, without caps; N, C: chain ends. No end group written: not given here.

Assays:
[1] = test system: ribonuclease secreted by Capan-1; assay: Ribonuclease secretion and glycosylation pattern (zymogram); format: cell-based, human; conditions: PCI 5 μg/mL, pre and postadhesion; DMEM + BMS 10%
Text: To verify whether the PCI when affecting cell growth may provoke metabolic changes too, we analysed the changes in a secreted protein, ribonuclease, in the human pancreatic adenocarcinoma cell line Capan-1. Apart from the mentioned material required for cell culture, this analysis was based on the detection of ribonuclease activity by means of the electrophoretic analysis in activity gels (zymograms) (Bravo, J. et al (1994) Anal Biochem., 219: 82-86).
With this aim in mind, the culture medium of the proliferation tests of Section 4.B.1 was taken. Thus, a culture medium of control cells was provided for cells treated with PCI from the beginning (preanchorage) and for cells treated once they had adhered to the culture surface (postanchorage). Given the fact that the FBS contains bovine ribonuclease which would interfere in our research, these cells grew in DMEM supplemented with BMS at 10%. The procedure was as follows: […]
At the moment of the analyses, the media were unfrozen in order to have an aliquot of each sample. The concentration of total protein was determined by means of the Bradford method (Bradford, M. M. (1976) Anal. Biochem., 72: 248-254). […]
The analysis of ribonuclease secretion was done with Capan-1. […] Using the electrophoretic analysis of ribonuclease activity, the pattern of glycosylation of this protein could be observed and a certain quantification could be made.

[2] = target: T1, EGF receptors of the Capan-1 cell line (Homo sapiens, UniProt P00533); assay: Competitive binding with 125I-EGF to EGF receptors
T1 construct: endogenous in cells; host or cells: Capan-1 (human pancreatic adenocarcinoma)
Experimental: The detailed procedure that was employed is as follows:
1. 1.25×10^5 cells were seed per well in plates of 24 wells which were kept in culture for 48 h in DMEM FBS 10%. Triplicates were put for each concentration of competitor to be tested.
2. 24 h before the test, the full medium of the wells was replaced by 2 mL, per well, of DMEM without fetal serum.
3. The next day, the cells were washed, three times, with cold binding medium.
4. The cells were incubated with 70 μL of binding medium to which the concentrations of the competitor to be tested had been added. […] Afterwards, 40,000 cpm (350 pM) of ^125I-EFG were added. The incubation was done at 4° C. for 5 h.
5. The cells were washed quickly three times with 500 μL of the cold washing solution.
6. They were solubilized through incubation for 30 min at room temperature with the permeabilization solution.
7. The radioactivity in the suspension was determined with a gamma counter. To determine the unspecific binding, the value of unspecific binding was deducted from the total bounded radioactivity.
From the test, the bounded radioactivity for each one of the tested concentrations of unlabeled competitor was determined. […] To determine the percentage, the following formula was applied: [formula]
where B is the amount of specific binding in presence of a specific competitor concentration.
With the aim of determining the kind of binding which is taking place, a pseudo-Hill or Logit-log representation (Pratt, W. B. and Taylor, P. “Principles of Drug Action. The Basis of Pharmacology”. Ed. Churchill Livingstone, N.Y., 1990) was carried out. The data of specific binding percentage are used to calculate the log(P/[100-P]), which is represented versus the logarithm of the competitor concentration.
The resulting slope of the straight line is called pseudo-Hill coefficient.
The fitting has been made using the programme Graphpad Inplot4. A non-linear fitting for competition for two binding sites is made. The logarithm of the competitor concentration has been represented versus the values of Logit-log (FIG. 25).
From the previous fitting, the value of IC50, that is to say, the competitor concentration which inhibits 50% of the specific binding for the two types of binding was determined. Also, the percentage of the two types of binding sites was determined.

EGF receptor = EGF receptor (Homo sapiens, UniProt P00533); assay: Kinase activity (phosphorilation) of the EGF receptor, Capan-1 cells; format: cell-based; set-up: endogenous in cells; host or cells: Capan-1 (human pancreatic adenocarcinoma)
Experimental: The material and protocol used have been those described by Donato, N. J. et al. (1989) J. Cell. Biochem., 41: 139-157.
1.c. Wash the cells twice more with tempered PBS and add new serum-free medium. Immediately after, add PCI to the concentration which is going to be studied in the cultures to be treated and incubate for 10 min at 37° C.
2.a. […] Incubate for 1 h in ice.
3.a. Prepare the reaction buffer. Each sample requires 50μL.
3.k. Dry the gel (for at least 3 h) and autoradiograph it for 10 min for the A431 cell line and 2-4 h for the Capan-1 cell line. Count the radiactivity of the filter using a beta counter.

[3] = [PCI] nM 1, 350 pM 125I-EGF, 5 h, 4° C.

Substance: PCI: potato carboxypeptidase inhibitor, isoform IIa, obtained by recombinant DNA techniques in E. coli (SEQ ID NO.2) (EQHADPICNKPCKTHDDCSGAWFCQACWNSARTCGPYVG; disulfide 12-27, 18-34, 8-24)
- secretion and glycosylation of ribonuclease compared to the control group [1]: higher secretion of ribonuclease with a higher degree of glycosylation
- % Receptors ([2]; High affinity binding site): 99.7%
- Log (P/[100-P]) ([2]; Log [PCI] M −4.33): −0.272
- Log (P/[100-P]) ([2]; Log [PCI] M −4.93): −0.2246
- Log (P/[100-P]) ([2]; Log [PCI] M −5.83): −0.1873
- Log (P/[100-P]) ([2]; Log [PCI] M −6.63): 0,605
- Log (P/[100-P]) ([2]; Log [PCI] M −7.63): 0.713
- Log (P/[100-P]) ([2]; Log [PCI] M −8.63): 1.205
- Log (P/[100-P]) ([2]; Log [PCI] M −9): 1.99
- % Receptors ([2]; Low affinity binding site): 0.3%
- Percentage of specific binding [2, 3]: 99%
- Specific binding (cpm) [2, 3]: 1597 cpm
- Percentage of specific binding ([2]; [PCI] nM 2.32): 94.14%
- Specific binding (cpm) ([2]; [PCI] nM 2.32): 1503.5 cpm
- Percentage of specific binding ([2]; [PCI] nM 23.2): 83.78%
- Specific binding (cpm) ([2]; [PCI] nM 23.2): 1307 cpm
- Percentage of specific binding ([2]; [PCI] nM 232.8): 80.13%
- Specific binding (cpm) ([2]; [PCI] nM 232.8): 1250 cpm
- Percentage of specific binding ([2]; [PCI] nM 2328.2): 39.38%
- Specific binding (cpm) ([2]; [PCI] nM 2328.2): 621.5 cpm
- Percentage of specific binding ([2]; [PCI] nM 11641): 37.35%
- Specific binding (cpm) ([2]; [PCI] nM 11641): 582.6 cpm
- Percentage of specific binding ([2]; [PCI] nM 46566): 34.83%
- Specific binding (cpm) ([2]; [PCI] nM 46566): 543.33 cpm
- binding capacity to the receptor of high affinity, times inferior to that of the EGF ([2]; high affinity receptor): 6 times
- Kinase activity (%) (EGF receptor; 5 ng/mL EGF + 1 mg/mL PCI): 180%
- Kinase activity (%) (EGF receptor; 5 ng/mL EGF + 10 mg/mL PCI): 170%
- Kinase activity (%) (EGF receptor; 5 ng/mL EGF + 50 mg/mL PCI): 120%
- inhibition of the kinase activity induced by EGF (EGF receptor; PCI concentration of 50 μg/mL): 50%
- Kinase activity (%) (EGF receptor; basal, incubation with PCI 50 mg/mL, 10 min, 100% = absence of PCI): 70% and 88% and 90%
